Results on one protein are retold here after paper PMC6116751, “An enzymatic system for decolorization of wastewater dyes using immobilized CueO laccase‐like multicopper oxidase on poly‐3‐hydroxybutyrate” (Microbial Biotechnology, 2018).

Substrate in this data set: COc1cccc(OC)c1O
The data set can be described thus: purified protein. It counts as biochemical, Escherichia coli. To be noted: soluble enzyme, 20 mM Tris pH 6.5, 10 μM Cu2+, 30 °C.

B1: BioF–CueO (CueO laccase-like multicopper oxidase fused to BioF tag) (Escherichia coli K-12) (protein)
chain: AERPTLPIPDLLTTDARNRIQLTIGAGQSTFGGKTATTWGYNGNLLGPAVKLQRGKAVTVDIYNQLTEETTLHWHGLEVPGEVDGGPQGIIPPGGKRSVTLNVDQPAATCWFHPHQHGKTGRQVAMGLAGLVVIEDDEILKLMLPKQWGIDDVPVIVQDKKFSADGQIDYQLDVMTAAVGWFGDTLLTNGAIYPQHAAPRGWLRLRLLNGCNARSLNFATSDNRPLYVIASDGGLLPEPVKVSELPVLMGERFEVLVEVNDNKPFDLVTLPVSQMGMAIAPFDKPHPVMRIQPIAISASGALPDTLSSLPALPSLEGLTVRKLQLSMDPMLDMMGMQMLMEKYGDQAMAGMDHSQMMGHMGHGNMNHMNHGGKFDFHHANKINGQAFDMNKPMFAAAKGQYERWVISGVGDMMLHPFHIHGTQFRILSENGKPPAAHRAGWKDTVKVEGNVSEVLVKFNHDAPKEHAYMAHCHLLEHEDTGMMLGFTV
notes: signal peptide absent (the primer starts at mature Ala-Glu-Arg-Pro-Thr); cueO amplified from pCueO (pASK-IBA3 derivative); plasmid pDB2 (pET-21d); expressed in E. coli BL21(DE3), butyl sepharose; tag kept
By Km is commonly meant the substrate concentration at which the rate is half of its maximum. As a reminder, the kcat is the number of substrate molecules converted per active site and unit of time at saturation. By kcat/Km is commonly meant the second-order rate constant that governs catalysis at low substrate concentration. For the protein B1, the Km is 0.4 ± 0.1 mM, the kcat stood at 4.3 ± 0.1 s⁻¹ and the kcat/Km stood at 10700 M⁻¹ s⁻¹.
